# Data reported in PMC9701387, “CDH17 nanobodies facilitate rapid imaging of gastric cancer and efficient delivery of immunotoxin” (Biomaterials Research, 2022).
# B1: CDH17 domain 1-3 (human), recombinant (domain or fragment)
# chain: QEGKFSGPLKPMTFSIYEGQEPSQIIFQFKANPPAVTFELTGETDNIFVIEREGLLYYNRALDRETRSTHNLQVAALDANGIIVEGPVPITIKVKDINDNRPTFLQSKYEGSVRQNSRPGKPFLYVNATDLDDPATPNGQLYYQIVIQLPMINNVMYFQINNKTGAISLTREGSQELNPAKNPSYNLVISVKDMGGQSENSFSDTTSVDIIVTENIWKAPKPVEMVENSTDPHPIKITQVRWNDPGAQYSLVDKEKLPRFPFSIDQEGDIYVTQPLDREEKDAYVFYAVAKDEYGKPLSYPLEIHVKVKDINDNPPTC
# notes: Cadherin-17 (CDH17, LI-cadherin), human, extracellular cadherin domains 1-3; soluble protein of about 40 kD; the supplementary methods (Additional file 1) may hold them; also called extracellular domain 1-3 of CDH17; CDH17 protein; source: E. coli BL21 (DE3), purified (Ni-NTA, Superdex gel filtration)
# B2: E8 nanobody (VHH)
# VHH: AVQLVESGGGLVQPGGSLRLSCTASGSILSFNSMGWHRQAPGRQRELVAGISIHKTSSNYANFVKGRFTISRDDAKNTVYLQMNSLKPEDTAVYYCAAVQRGQSRISYWGQGTQVTVSS
# notes: from a naive alpaca VHH phage library; shorter CDR3 than A1; HA tag joined to the C-terminus by a GA linker; a cysteine is attached at the end of the HA tag; The purified protein was confirmed with His tag and HA tag antibodies; also called CDH17 nanobody E8; naked E8 nanobody; source: E. coli (pColdII vector), purified (Ni-NTA); not shown: HA, C-terminal, kept
# B3: A1 nanobody (VHH)
# VHH: AVQLVESGGGLVQAGDSLRLSCAASGRTFSSNGMGWFRQAPGKGREFVAAISWNAGTTLYTDSVKGRFTISRDNAKNTVYLQMNSLKPEDTAIYYCAAREYYGGSYYPSREYEYGYWGQGTQVTVSS
# notes: from a naive alpaca VHH phage library; HA tag joined to the C-terminus by a GA linker; a cysteine is attached at the end of the HA tag; The purified protein was confirmed with His tag and HA tag antibodies; also called CDH17 nanobody A1; source: E. coli (pColdII vector), purified (Ni-NTA); not shown: HA, C-terminal, kept
# Key:
# [1] = target: E8-PE38 immunotoxin (alpaca (Lama pacos) | Pseudomonas …); test: SPR; format and conditions not told in the text shown; conditions: both partners purified
# [2] = target: B1; test: as above; conditions: both partners purified
Binder,Kd [1] [nM],Kd [2] [nM]
B1,86.9,
B2,,70.3
B3,,377
